Results on 15 sequences are retold here after the DeepSol protein solubility set.

This data set in a line: soluble on expression in E. coli; label from the status in PepcDB or PDB records.
With “MRGGSSLDSFPGKGTLHTLEIENFKSYKGKHTIGPFTRFTAIIGPNGSGKSNLMDAISFVLGEKPSSLRVRKYADLIHGAPINKPVAKKCRVTMNYKYSDGKVKAFTRGVNNGTSEHLLDGQTVTSAAYSQEMESINIFIKARNFLVYQGAIENIAMKTPKERTQLFEELSRSHEFQAEYERLKVEMTKAEDDTQHNMNKRRGIAQEKREAKMEKDEAEKYQTMKNELAAKSTMLFLHQLFHCERTIDESKEEINAQKKTIASLEATRSKEEAKIAAVHQEHRKALREVQKMTRKLDQKETDLAEKQQNMLTLKVSVAHEHKKLEIAKKMLAAAESKAENNSTQLADLKKSKKELEKKKAAYEAEIQDMMQRGELNLSDEQVREYGQLKDQAQRESAMVQRELLMAEQVFEGDKSSLNHELRRQKEHQERVKAKEGDVRRIETQIATLAQRIKETEEETKILKADLKKIENDVVIDKSAAAEYNKELVAVVRQLSEASGDSAEGERNQRRTEALEGLKKNFPESVYGRLVDLCQPSHKRFNIATTKILQKHMNSIVCDTEETAAKAIVYLKDHRYPPETFLPNDALVVNPLNEKLREIKKPAGVKLVFDVINPQHQAARKALQFVCGNALVCESQEDAKQLAYGGGELKDRFKAVSMDGTLFQQSGVMSGGSADLRQKSKKWDEKVVKQLREKRNQLNEKIADLQKHRRRELEVESVRSKINGNEQRLAMMKRDLKNMREMQLERLQNELEGMTAEMNMLPPRISNCQEKLERSESTLKSLQTKSNEVADRIFADFCTRVGIASIRDYENREMRIKQEMEDKLRSFDDDIQKLAYEIDFVTEQDGNRKVEVEKEKVSQIDRQYKDMKKKEKTAAAALKEHTESMEQDKEVLEEKKALSHKLETEWNEVKKIAQVAMKDFTKAEKELLRLESLLTKKQYERHSLLHSVKLGQIALPLKSGSMADVEYEEDDGDIYFIIFVSLFPFKFQLISDDTASQSSQSATDGPSVSEEQIQREQHIKINYDSLPREYKDVDDDDGVRQMSNRLNVEIDELQKNVSKMNAPNLKANQRMAEVKEREAESTEELENARKKAKRIRQQFEKVKTDRYRRFQDFFDPVANTIDDIYKQLSRNTSAQAFLGADNMEEPYLDGIQYNCVAPGKRFRPMDNLSGGEKTIAALALLFAVHGRNPAPFFVLDEIDAALDNTNIGKVASYICESAREHMQIIVISLKEEFYNKADSLIGIFPYPAACTTSGVLTFDLTRFKQIGLNEMTENPPTPSIAT”, the “soluble on expression in E. coli” value is given as “not soluble”.

As to “MGSDKIHHHHHHMERNTRVVKVANLKIGGNNPIIIQSMTNTNSADVEATVKQINNLEKVGCQLVRMTINNIKAAEAIKEIKKKVSLPLVADIHFDYRLALLAIKNGIDKLRINPGNIGSDENVKKVVEAAKEKNIPIRIGVNSGSIEKEILEKYGKPCVDALVESAMYHIRLLEKFDFFDIIVSLKSSNVKMMVEAYRKISSLVDYPLHLGVTEAGTKFQGTVKSAIGIGALLVDGIGDTLRVSLTENPVEEIKVAKEILKVLDLSDEGVEIISCPTCGRTEIDLIGLAKQVEEEFRTKKNKFKIAVMGCVVNGPGEAREADYGIAAGRGIGILFKKGEIIKKVSESNLLEELKKMISEDLENKKD”, the “soluble on expression in E. coli” value is recorded as “not soluble”.

For “MSDSVSDAQAQSTPEGAQQKPILRVVKGNPDPTQVATLTALFASMADNAAQQSKQERERNLWGNVEERLQRPTTYNPTAFRNVSFF”, the “soluble on expression in E. coli” value was “not soluble”.

For the sequence “MWRVCARRAQNVAPWAGLEARWTALQEVPGTPRVTSRSGPAPVRRNSVTTGYGGVRALCGWTPSSGATPRNRLLLQLLGSPGRRYYSLPPHQKVPLPSLSPTMQAGTIARWEKKEGDKINEGDLIAEVETDKATVGFESLEECYMAKILVAEGTRDVPIGAIICITVGKPEDIEAFKNYTLDSSAAPTPQAAPAPTPAATASPPTPSAQAPGSSYPPHMQVLLPALSPTMTMGTVQRWEKKVGEKLSEGDLLAEIETDKATIGFEVQEEGYLAKILVPEGTRDVPLGTPLCIIVEKEADISAFADYRPTEVTDLKPQAPPPTPPPVAAVPPTPQPLAPTPSAPCPATPAGPKGRVFVSPLAKKLAVEKGIDLTQVKGTGPDGRITKKDIDSFVPSKVAPAPAAVVPPTGPGMAPVPTGVFTDIPISNIRRVIAQRLMQSKQTIPHYYLSINVNMGEVLLVRKELNKILEGRSKISVNDFIIKASALACLKVPEANSSWMDTVIRQNHVVDVSVAVSTPAGLITPIVFNAHIKGVETIANDVVSLATKAREGKLQPHEFQGGTFTISNLGMFGIKNFSAIINPPQACILAIGASEDKLVPADNEKGFDVASMMSVTLSCDHRVVDGAVGAQWLAEFRKYLEKPITMLL”, the “soluble on expression in E. coli” value is “soluble”.

For the sequence “KRFEFVGWGSRQLIEFLHSLGKDTSEMISRYDVSDTIAKYISKEGLLDPSNKKKVVCDKRLVLLFGTRTIFRMKVYDLLEKHYKENQD”, the “soluble on expression in E. coli” value is recorded as “soluble”.

Regarding “MGRGEHKEHKRKRSRSKERKRSRSRSPRGSREHREHRDRDRDRERRRERDTDREKTRDREKQRDAEKKKEKESKTAIFEMEESRNDTEEVMKMKEAELLQGVERRRRNVEKWRAQKKKEELDLQSEQSDEKSEKKPWNLEDEDDEDEFDIKNEGISEENPVKMEEKVEKMDTDDEEDPLDAFMKEIATKNAKKTGNSTQKASGIVTIVQEEKPEPEKGQVLENEDNMDMVIDDFDIETAAASLCHKGRMLAQTDHSKVYYRKFKKNFYIETEEIRRMTKAEVKAYREELDSITVKGIDCPKPIKTWAQCGVNLKMMNVLKKFEYSKPTSIQAQAIPSIMSGRDVIGIAKTGSGKTLAFLLPMFRHILDQPELEEGDGPIAVILAPTRELAMQTYKEANKFAKPLGLKVACTYGGVGISEQIADLKRGAEIVVCTPGRMIDVLAANSGKVTNLRRVTYLVLDEADRMFDKGFEPQIMKVVNNIRPDKQTVLFSATFPRHMEALARKVLDKPVEILVGGKSVVCSDITQNAVICAEHQKFLKLLELLGMYYEEGSSIVFVDKQEKADDIVDQLMRTGYNSVAPLHGGIDQHDRDSSIADFKTGVIKVLVATSVAARGLDVKNLILVVNYDCPNHYEDYVHRVGRTGRAGRKGYAYTFVLPEHQEKMAGEICRAFETAGCKPPADLKAMFERFKSEMAAEGKEVKLGGKGFEGSGYKYDEGEAEADANKKRMTRLTAQLQRGGTQARYKV”, the “soluble on expression in E. coli” value is reported as “not soluble”.

Take “MQTGRQQNKGTIFASLNMSRKNRHNVLPRATMLRKKAIQIRLNEAEHKAVETYCSRFKVENRSRWIRETLMKEVIHRLESDTPLLFREEEMR”: the “soluble on expression in E. coli” value is “not soluble”.

With “MTFLDKIKQGCLDGWAKYKILPSLTAAQAILESGWGKHAPHNALFGIKADASWTGKSFNTKTQEEYQAGVITDIVDRFRAYDSWDESIADHGQFLVDNPRYQSVIGEADYKKACHAIKDAGYATASGYAELLIQIIEENNLQKWDKEAIVRKEKQMINSQCREVIEFFINLANAGMGVDKDSFAGWQCADVPCYAAKHWFDVDLWGNAIDLLDSAAAVGWEVHRMPTDANPLTGAFFVQSVPYHQFGHTGIVIEDSDGYTMRTVEQNIDGNPDALYVGAPARFNTRDFTGVIGWFYPPYQGDTVTQPVSTEPQTSETIVETAKTGTFTLDVAEINIRRWPSLASEVVGSYKQGDTVSFDNEGYANGYYWISYVGGSGMRNYLGIGQTDKDGNRISLWGKLNLEHHHHHH”, the “soluble on expression in E. coli” value is given as “soluble”.

Turning to “MNKPLMSKATAVWLIDNTTLSFRQIADFCGMHELEVQGIADGDVATGVKGFDPVANNQLDAIEIEKGQRDPLYKMKLKFNPAAVGEEKRRGPRYTPLSKRQDRPAAILWLVKFHPELSDGAIAKLVGTTKPTIQSIRERTHWNIGSIQPIDPVALGLCRQTELDAAVQQAARRKAAEGVVMSDDERRKLVSTEQSLSMPDEPRMPSGLEQFGRSEEEKRPADFSDADSFFNLPHGDDADEEEDEDPARAAALEHHHHHH”, the “soluble on expression in E. coli” value is on record as “soluble”.

For the sequence “MPQIQSSHSNHFDFTIDTADRTKLLMSYLVVPTTANFNNVMHGGELLNLLDKVAYVCSTRYCAKGTVTLSVDGVTFKYPIPVGNLLTFLASINYVGNTSCEVGIKVLSEDIKTREITHTNSCYFTMVAVENGKPTPMPKYEPKTEVEIRRYEGALKRKEMRTRGYLKSGKHEGVLEHHHHHH”, the “soluble on expression in E. coli” value is recorded as “not soluble”.

As to “MGSDKIHHHHHHMIYFETERLICRAFERADLQAFTAYRADPEVARYQSWQDYQYQDALALFENLQQTPFGANGTWMQLALVCRQTQALVGDLALHFIDAQQVEIGFTLASEHQGKGLAREALQGLLVYLFERLGKHRVSAITDVKNRAAWGLLERLGFRREAHYRDNIFFKGSWGSEYGYGLLAREWRQAQVGEPLQEFRLIKRVAPLNDFLRLRQITGLTPRSREAAELGLPLSLFGVHLLAGDRVLAMGRVVGDGALNFELVDIAVDPEYQGRGLGSAIMSAIMAYLDEMAPKGAYITLMADVPALYLKFGFEYSRPASEGMYKLQA”, the “soluble on expression in E. coli” value is on record as “not soluble”.

“MTRPFNRVHLIVMDSVGIGEAPDAADFKDEGSHTLRHTLEGFDQTLPNLEKLGLGNIDKLPVVNAVEQPEAYYTKLSEASVGKDTMTGHWEIMGLNIMQPFKVYPNGFPEELIQQIEEMTGRKVVANKPASGTQIIDEWGEHQMKTGDLIVYTSADPVLQIAAHEDIIPLEELYDICEKVRELTKDPKYLIGRIIARPYVGEPGNFTRTSNRHDYALKPFGKTVLDHLKDGGYDVIAIGKINDIYDGEGVTEAVRTKSNMDGMDQLMKIVKKDFTGISFLNLVDFDALYGHRRDKPGYAQAIKDFDDRLPELFSNLKEDDLVIITADHGNDPTAPGTDHTREYIPVIMYSPKFKGGHALESDTTFSSIGATIADNFNVTLPEFGKSYLKELK”: the “soluble on expression in E. coli” value is listed as “not soluble”.

For the sequence “TMLCVLTTDAAAEPAALERALRRAAAATFDRLDIDGSCSTNDTVLLLSSGASEIPPAQADLDEAVLRVCDDLCAQLQADAEGVTKRVTVTVTGAATEDDALVAARQIARDSLVKTALFGSDPNWGRVLAAVGMAPITLDPDRISVSFNGAAVCVHGVGAPGAREVDLSDADIDITVDLGVGDGQARIRTTDLSHAYVEENSAYSS”, the “soluble on expression in E. coli” value is “soluble”.

Take “MGSDKIHHHHHHMDILTGKCSDRFMAHVLKRRDQEAVRWYVLTLPTAGGGRDRISPSKGLDAELSRRERRGEALFEYFSPSYVEARKVGGKMVNTRQPLLYNYVFVHASEDEIFRLKRTLPLYNFLPRVSSGGRSYFPYLSDREMDTLRWVAASYSNELPVYVPDSGRLLKGDRVRITSGPFTDMEAEVVVQPGGGHKDVMVRILDCLWVPLFEVRAGEYELIELNTGGKHVYTHLDNDRLSEGLHDALGRYHASGVVVDEDACLAREVLRGYASLRAETDVIRCKLYSLLLPAYLLLGESDEFDRLRSTMRSMLPVIKAGQSRALLLVTLYGCTDSSLYQRMAHELVDPWQEEASPKKSKTVLIRRLRDYDRWLKHNE”: the “soluble on expression in E. coli” value is on record as “not soluble”.

On to “MSYDRVKDFDLPELAVHLQPHGAVMIDRKSMFYFRLSGRGAQLAFLLSKNKNLHKTARIWEIMKKEEMSADQLKEELSAHPFTEAWTEGLLDQPLHVSGSLDSYLPISCTLQLTNACNLSCSFCYASSGKPYPEELSSEQWILVMQKLAAHGVADITLTGGEAKLIKGFKELVVVASSLFTNVNVFSNGLNWRDEEVELLSHLGNVSVQISIDGMDNTHDQLRGRKGGFKESMNTIKKLSEANIPVIVAMTINESNADEVSDVVEQCANAGAFIFRAGKTLSVGRATEGFKALDIDFEEMVQIQLREARHKWGDRLNIIDWEHEESSFTTDFCTPGYLAWYIRADGYVTPCQLEDLPLGHILEDSMADIGSPARLLQLKCEAKNCKCIGKIELSEPDLPFQKEVKAGIQE”, for which the “soluble on expression in E. coli” value is “not soluble”.
